Measured values: patent US20170283479

Assays:
[1] = molecular target: insulin analogs where the A-chain is derived from the native insulin sequence
[2] = molecular target: analogs where the A-chain is derived from the sequence of IGF-1

B1: rDNA rat insulin-specific degrading enzyme (IDE) (protein)
chain: MNNPAIQRIEDHIVKSPEDKREYRGLELANGIKVLLISDPTTDKSSAALDVHIGSLSDPPNIPGLSHFCEHMLFLGTKKYPKENEYSQFLSEHAGSSNAFTSGEHTNYYFDVSHEHLEGALDRFAQFFLCPLFDASCKDREVNAVDSEHEKNVMNDAWRLFQLEKATGNPKHPFSKFGTGNKYTLETRPNQEGIDVREELLKFHSTYYSSNLMAICVLGRESLDDLTNLVVKLFSEVENKNVPLPEFPEHPFQEEHLKQLYKIVPIKDIRNLYVTFPIPDLQQYYKSNPGHYLGHLIGHEGPGSLLSELKSKGWVNTLVGGQKEGARGFMFFIINVDLTEEGLLHVEDIILHMFQYIQKLRAEGPQEWVFQECKDLNAVAFRFKDKERPRGYTSKIAGKLHYYPLNGVLTAEYLLEEFRPDLIDMVLDKLRPENVRVAIVSKSFEGKTDRTEQWYGTQYKQEAIPEDVIQKWQNADLNGKFKLPTKNEFIPTNFEILALEKDATPYPALIKDTAMSKLWFKQDDKFFLPKACLNFEFFSPFAYVDPLHCNMAYLYLELLKDSLNEYAYAAELAGLSYDLQNTIYGMYLSVKGYNDKQPILLKKITEKMATFEIDKKRFEIIKEAYMRSLNNFRAEQPHQHAMYYLRLLMTEVAWTKDELKEALDDVTLPRLKAFIPQLLSRLHIEALLHGNITKQAALGVMQMVEDTLIEHAHTKPLLPSQLVRYREVQLPDRGWFVYQRRNEVHNNCGIEIYYQTDMQSTSENMFLELFCQIISEPCFNTLRTKEQLGYIVFSGPRRANGIQGLRFIIQSEKPPHYLESRVEAFLITMEKAIEDMTEEAFQKHIQALAIRRLDKPKKLSAECAKYWGEIISQQYNYDRDNIEVAYLKTLSKDDIIKFYKEMLAVDAPRRHKVSVHVLAREMDSCPVVGEFPSQNDINLSEAPPLPQPEVIHNMTEFKRGLPLFPLVKPHINFMAAKL
- cleavage by IDE (HPLC and residual insulin receptor phosphorylation activity) [1]: extremely robust and easily detected
- cleavage by IDE (HPLC and residual insulin receptor phosphorylation activity) [2]: appear to be extremely resistant to proteolysis
